# Data published in IntAct's records for PubMed 15744310.
# B1: NAD-dependent protein deacetylase sirtuin-1 (Mus musculus), Q923E4 (parent)
# chain: MADEVALALQAAGSPSAAAAMEAASQPADEPLRKRPRRDGPGLGRSPGEPSAAVAPAAAGCEAASAAAPAALWREAAGAAASAEREAPATAVAGDGDNGSGLRREPRAADDFDDDEGEEEDEAAAAAAAAAIGYRDNLLLTDGLLTNGFHSCESDDDDRTSHASSSDWTPRPRIGPYTFVQQHLMIGTDPRTILKDLLPETIPPPELDDMTLWQIVINILSEPPKRKKRKDINTIEDAVKLLQECKKIIVLTGAGVSVSCGIPDFRSRDGIYARLAVDFPDLPDPQAMFDIEYFRKDPRPFFKFAKEIYPGQFQPSLCHKFIALSDKEGKLLRNYTQNIDTLEQVAGIQRILQCHGSFATASCLICKYKVDCEAVRGDIFNQVVPRCPRCPADEPLAIMKPEIVFFGENLPEQFHRAMKYDKDEVDLLIVIGSSLKVRPVALIPSSIPHEVPQILINREPLPHLHFDVELLGDCDVIINELCHRLGGEYAKLCCNPVKLSEITEKPPRPQKELVHLSELPPTPLHISEDSSSPERTVPQDSSVIATLVDQATNNNVNDLEVSESSCVEEKPQEVQTSRNVENINVENPDFKAVGSSTADKNERTSVAETVRKCWPNRLAKEQISKRLEGNQYLFVPPNRYIFHGAEVYSDSEDDVLSSSSCGSNSDSGTCQSPSLEEPLEDESEIEEFYNGLEDDTERPECAGGSGFGADGGDQEVVNEAIATRQELTDVNYPSDKS
# partner: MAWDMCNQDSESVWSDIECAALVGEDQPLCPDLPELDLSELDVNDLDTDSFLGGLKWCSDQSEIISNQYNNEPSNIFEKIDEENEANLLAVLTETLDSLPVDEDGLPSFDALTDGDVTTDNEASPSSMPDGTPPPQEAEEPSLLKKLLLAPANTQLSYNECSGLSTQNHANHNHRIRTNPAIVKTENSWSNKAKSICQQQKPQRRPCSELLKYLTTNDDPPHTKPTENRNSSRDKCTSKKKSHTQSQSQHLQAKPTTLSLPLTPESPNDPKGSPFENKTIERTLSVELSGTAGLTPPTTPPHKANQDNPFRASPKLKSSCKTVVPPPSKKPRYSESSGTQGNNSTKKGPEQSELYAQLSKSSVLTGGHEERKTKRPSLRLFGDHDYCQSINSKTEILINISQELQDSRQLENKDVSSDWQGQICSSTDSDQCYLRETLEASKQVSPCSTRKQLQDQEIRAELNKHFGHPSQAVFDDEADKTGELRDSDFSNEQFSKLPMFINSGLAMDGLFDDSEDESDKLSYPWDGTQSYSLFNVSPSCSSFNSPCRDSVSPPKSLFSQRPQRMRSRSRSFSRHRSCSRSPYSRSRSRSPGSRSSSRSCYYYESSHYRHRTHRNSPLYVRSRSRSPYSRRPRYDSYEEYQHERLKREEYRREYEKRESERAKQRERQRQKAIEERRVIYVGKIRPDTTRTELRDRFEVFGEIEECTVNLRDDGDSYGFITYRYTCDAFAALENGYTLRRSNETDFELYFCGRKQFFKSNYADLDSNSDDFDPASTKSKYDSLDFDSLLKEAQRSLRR
# Variants of: B1
# Settings: with prgc1_human PPARGC1A
row,effect of a mutation on the interaction,Variant
1,decreasing interaction,H355A
